Results on 16 molecules are retold here after patent US20030068675, “Position dependent recognition of GNN nucleotide triplets by zinc fingers” (published 2003).

Common to all, as to test: EMSA
Holding throughout (details): tags: MBP fusion
Background: Mobility shift assays separate free from complexed probe on a gel.

One data set addresses T1, ZFP SBS#724 (synthetic).
T1 chain: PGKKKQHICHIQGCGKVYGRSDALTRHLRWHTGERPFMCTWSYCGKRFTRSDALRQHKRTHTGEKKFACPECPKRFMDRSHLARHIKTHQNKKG
The method in brief: (§1)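 Purified ZFP was titrated against labeled double-stranded target (1 nM or lower, at least 10-fold below expected Kd) carrying the natural binding site with flanks. Binding buffer was 10 mM Tris pH 7.5, 100 mM KCl, 1 mM MgCl2, 0.1 mM ZnCl2, 5 mM DTT, 10% glycerol, 0.02% BSA, with equilibration for at least 45 min. Bound and free target were separated on a 10% polyacrylamide gel.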

Another data set addresses T2, ZFP SBS#719 (synthetic).
T2 chain: T1 chain with R55T, Q56S
The gist of the method: as §1

The target of the next data set is ZFP SBS#428 (synthetic). The method in brief: as §1
ZFP SBS#428 (synthetic), sequence (chain, as listed by the source): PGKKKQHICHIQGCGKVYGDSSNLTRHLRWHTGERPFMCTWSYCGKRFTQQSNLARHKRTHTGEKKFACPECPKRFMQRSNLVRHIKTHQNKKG
The target of the next data set is T3, ZFP SBS#567 (synthetic).
T3 chain: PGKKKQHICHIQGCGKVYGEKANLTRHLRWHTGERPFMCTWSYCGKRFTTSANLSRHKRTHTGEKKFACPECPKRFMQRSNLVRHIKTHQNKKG
The method in brief: as §1

The next data set addresses ZFP SBS#429 (synthetic). The method in brief: as §1
The target of a further data set is ZFP SBS#741 (synthetic). The method in brief:
as §1

The target in a further data set is T4, ZFP SBS#758 (synthetic, UniProt P08047).
T4 chain: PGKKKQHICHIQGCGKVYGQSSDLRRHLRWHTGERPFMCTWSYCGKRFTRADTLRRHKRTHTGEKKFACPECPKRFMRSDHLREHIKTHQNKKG
The method in brief: as §1

Another data set addresses T5, ZFP SBS#757 (synthetic, UniProt P08047).
T5 chain: T4 chain with A51S, T53E, R55Q
The gist of the method: as §1

In the next data set the target is ZFP SBS#746 (synthetic). The gist of the method:
as §1

The next data set has as its target ZFP SBS#704 (synthetic). The method in brief:
as §1

The target of another data set is ZFP SBS#607 (synthetic). The gist of the method: as §1
For a further data set, the target named is T6, ZFP SBS#740 (synthetic).
T6 chain: T4 chain with S22G, D23S, R25T, A51S, T53A, R55A, H81N, L82R, R83T, E84A
The method in brief:
as §1

The next data set concerns the target T7, ZFP SBS#747 (synthetic).
T7 chain: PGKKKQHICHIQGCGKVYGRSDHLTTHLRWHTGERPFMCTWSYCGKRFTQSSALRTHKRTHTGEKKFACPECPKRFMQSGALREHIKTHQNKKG
The gist of the method:
as §1

The next data set has as its target T8, ZFP SBS#568 (synthetic).
T8 chain: T3 chain with T50D, A52S, S55T, Q78T, R79S, S80A, V83S
The method in brief:
as §1

In a further data set the target is T9, ZFP SBS#430 (synthetic).
T9 chain: T3 chain with T50D, A52S, S55T, R79Q, V83A
The method in brief: as §1

The target of another data set is ZFP SBS#734 (synthetic). The method in brief: as §1
ZFP SBS#734 (synthetic), sequence (chain, as listed by the source): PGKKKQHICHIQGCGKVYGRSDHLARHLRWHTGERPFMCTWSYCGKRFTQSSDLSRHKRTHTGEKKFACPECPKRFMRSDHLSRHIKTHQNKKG
In a further data set the target is ZFP SBS#731 (synthetic). The method in brief: as §1
ZFP SBS#731 (synthetic), sequence (chain, as listed by the source): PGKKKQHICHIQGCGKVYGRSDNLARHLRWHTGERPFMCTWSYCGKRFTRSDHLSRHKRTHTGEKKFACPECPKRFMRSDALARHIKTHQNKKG
In the next data set the target is T10, ZFP SBS#742 (synthetic).
T10 chain: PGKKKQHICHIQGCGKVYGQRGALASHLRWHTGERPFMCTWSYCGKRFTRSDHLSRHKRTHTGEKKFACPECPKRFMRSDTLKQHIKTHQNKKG
The method in brief:
as §1

For the next data set, the target named is T11, ZFP SBS#743 (synthetic).
T11 chain: T10 chain with K83T
The method in brief: as §1

For another data set, the target named is T12, ZFP SBS#745 (synthetic).
T12 chain: T10 chain with G22S, K83T
The gist of the method:
as §1

A further data set deals with T13, ZFP SBS#744 (synthetic).
T13 chain: T10 chain with G22S
The method in brief: as §1

The next data set concerns the target ZFP SBS#733 (synthetic). The gist of the method:
as §1

The next data set deals with ZFP SBS#732 (synthetic). The method in brief:
as §1

Another data set addresses ZFP SBS#725 (synthetic). The gist of the method: as §1
A further data set deals with T14, ZFP SBS#720 (synthetic).
T14 chain: T3 chain with E20T, K21T, A22S, T25A, T50R, A52D, S55A, R79S, S80G, V83T
The method in brief:
as §1

In a further data set the target is ZFP SBS#726 (synthetic). The gist of the method: as §1
ZFP SBS#726 (synthetic), sequence (chain, as listed by the source): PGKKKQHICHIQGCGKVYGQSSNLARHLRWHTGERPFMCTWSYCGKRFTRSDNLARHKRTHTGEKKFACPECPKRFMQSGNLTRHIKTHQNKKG
The target in a further data set is T15, ZFP SBS#736 (synthetic, UniProt P08047).
T15 chain: T10 chain with Q20R, R21S, G22D, A23H, S26R, H53A, T81N, K83S, Q84R
The method in brief: as §1

The target in another data set is T16, ZFP SBS#752 (synthetic, UniProt P08047).
T16 chain: T10 chain with Q20R, R21S, G22H, A23H, S26R, H53A, T81N, K83S, Q84R
The gist of the method: as §1

Another data set has as its target T17, ZFP SBS#712 (synthetic).
T17 chain: T1 chain with A23N, T25A, A53N, R55A, Q56R, D78M, R79S, S80D, A83S
The method in brief: as §1

The next data set deals with T18, ZFP SBS#728 (synthetic).
T18 chain: T1 chain with A23N, T25A, A53N, R55A, Q56R, R79S, H81K, A83S
The gist of the method: as §1

In a further data set the target is ZFP SBS#751 (synthetic). The gist of the method:
as §1

The next data set addresses T19, ZFP SBS#713 (synthetic).
T19 chain: T1 chain with A23N, T25A, A53N, R55A, Q56R, D78M, R79S, S80H, A83S
The method in brief: as §1

Changes are numbered by the printed parent chain.

ZFP SBS#746 (synthetic), sequence (chain, as listed by the source): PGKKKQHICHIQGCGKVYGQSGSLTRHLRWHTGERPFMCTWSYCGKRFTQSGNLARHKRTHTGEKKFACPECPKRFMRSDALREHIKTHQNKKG
ZFP SBS#704 (synthetic), sequence (chain, as listed by the source): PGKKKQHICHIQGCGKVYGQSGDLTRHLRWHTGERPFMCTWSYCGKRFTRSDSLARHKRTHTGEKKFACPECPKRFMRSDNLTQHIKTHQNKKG
ZFP SBS#751 (synthetic), sequence (chain, as listed by the source): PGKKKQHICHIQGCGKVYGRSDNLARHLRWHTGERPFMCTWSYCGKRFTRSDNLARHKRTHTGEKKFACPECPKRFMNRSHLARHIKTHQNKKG
ZFP SBS#732 (synthetic), sequence (chain, as listed by the source): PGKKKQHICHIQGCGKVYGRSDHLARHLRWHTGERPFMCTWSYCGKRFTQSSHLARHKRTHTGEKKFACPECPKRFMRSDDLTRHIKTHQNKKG
ZFP SBS#725 (synthetic), sequence (chain, as listed by the source): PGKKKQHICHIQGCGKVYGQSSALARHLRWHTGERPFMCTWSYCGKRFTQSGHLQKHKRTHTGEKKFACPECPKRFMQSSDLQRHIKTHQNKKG
ZFP SBS#741 (synthetic), sequence (chain, as listed by the source): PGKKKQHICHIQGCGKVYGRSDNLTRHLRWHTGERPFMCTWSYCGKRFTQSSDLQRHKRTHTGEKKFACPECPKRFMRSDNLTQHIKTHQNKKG
ZFP SBS#429 (synthetic), sequence (chain, as listed by the source): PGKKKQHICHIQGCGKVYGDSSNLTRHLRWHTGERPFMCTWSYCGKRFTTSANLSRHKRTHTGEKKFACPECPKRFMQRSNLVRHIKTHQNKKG

B1: GGCATGGTGG (dsDNA)
DNA 1: GGCATGGTGG
DNA 2: CCACCATGCC
For the molecule B1, the results for the Kd with ZFP SBS#724 and in the data set with ZFP SBS#719 were 2.5 nM and 20 nM, respectively.

B2: GAAGATGAC (dsDNA)
DNA 1: GAAGATGAC
DNA 2: GTCATCTTC
With B2, the Kd (commonly the equilibrium constant for the complex coming apart) in the data set with ZFP SBS#428 stood at 120 nM; with ZFP SBS#567, 47.5 nM; in the data set with ZFP SBS#429, 50 nM.

B3: AAGGCTGAGA (dsDNA)
DNA 1: AAGGCTGAGA
DNA 2: TCTCAGCCTT
As to B3, in the data set with ZFP SBS#741, the affinity, expressed as Kd, was 15 nM.

B4: CGGGCGGCTG (dsDNA)
DNA 1: CGGGCGGCTG
DNA 2: CAGCCGCCCG
Regarding B4, the dissociation constant (Kd) came out at 16.5 nM with ZFP SBS#758 and 14.5 nM in the data set with ZFP SBS#757.

B5: CTGGAAGCAT (dsDNA)
DNA 1: CTGGAAGCAT
DNA 2: ATGCTTCCAG
For the molecule B5, the Kd with ZFP SBS#746 is 2.07 nM.

B6: AAGGTGGCAG (dsDNA)
DNA 1: AAGGTGGCAG
DNA 2: CTGCCACCTT
In the case of B6, the Kd came out at 5 nM in the data set with ZFP SBS#704, 6.5 nM with ZFP SBS#607 and 12.5 nM with ZFP SBS#740.

B7: CTATTTTGGG (dsDNA)
DNA 1: CTATTTTGGG
DNA 2: CCCAAAATAG
Molecule B7 showed a Kd in the data set with ZFP SBS#747 of 2000 nM.

B8: GATGACGAC (dsDNA)
DNA 1: GATGACGAC
DNA 2: GTCGTCATC
In the case of B8, the Kd with ZFP SBS#568 was 300 nM; with ZFP SBS#430, 250 nM.

B9: GGGGCTGGGT (dsDNA)
DNA 1: GGGGCTGGGT
DNA 2: ACCCAGCCCC
B9: in the data set with ZFP SBS#734, binding was put at a Kd of 0.25 nM.

B10: GTGGGGGAGA (dsDNA)
DNA 1: GTGGGGGAGA
DNA 2: TCTCCCCCAC
In the case of B10, binding in the data set with ZFP SBS#731 was put at a Kd of 12 nM.

B11: ACGGGGTTAT (dsDNA)
DNA 1: ACGGGGTTAT
DNA 2: ATAACCCCGT
As for B11, the dissociation constant (Kd) in the data set with ZFP SBS#742 came to 29 nM; with ZFP SBS#743, 10 nM; in the data set with ZFP SBS#745 it was 12.5 nM; in the data set with ZFP SBS#744, 8.33 nM.

B12: GCGGGTGGGG (dsDNA)
DNA 1: GCGGGTGGGG
DNA 2: CCCCACCCGC
On to B12, for which the Kd is 0.32 nM with ZFP SBS#733 and 22.5 nM with ZFP SBS#732.

B13: GCTTGAGTTA (dsDNA)
DNA 1: GCTTGAGTTA
DNA 2: TAACTCAAGC
B13 gave an equilibrium dissociation constant (Kd) with ZFP SBS#725 of 3000 nM.

B14: GAAGAGGATG (dsDNA)
DNA 1: GAAGAGGATG
DNA 2: CATCCTCTTC
For the molecule B14, the Kd with ZFP SBS#720 is 1.6 nM; with ZFP SBS#726 it was 1.5 nM.

B15: GAGGTGGGGA (dsDNA)
DNA 1: GAGGTGGGGA
DNA 2: TCCCCACCTC
Take B15: the equilibrium dissociation constant (Kd) was 0.47 nM in the data set with ZFP SBS#736 and 31 nM with ZFP SBS#752.

B16: GGTGAGGAGT (dsDNA)
DNA 1: GGTGAGGAGT
DNA 2: ACTCCTCACC
With B16, the dissociation constant Kd with ZFP SBS#712 turned out to be 9.5 nM; with ZFP SBS#728, 15 nM; with ZFP SBS#751, 7 nM; with ZFP SBS#713 it was 0.15 nM.
